Data from publication PMC9973356, “Cryo-EM Structures of AcrD Illuminate a Mechanism for Capturing Aminoglycosides from Its Central Cavity” (mBio, 2023).
“And” between values parts separate entries of the source, which are not always exact repeats. Equal values may be shown once.

Target: the molecule itself
Test: cryo-EM structure; single-particle cryo-EM of 10 µM AcrD in MSP1E3D1 nanodiscs (E. coli total extract lipid; 20 mM Tris-HCl pH 7.5, 100 mM NaCl), no gentamicin; particle ratio of trimer to dimer to monomer approximately 3:5:2

B1: Escherichia coli acriflavine resistance protein D (AcrD) (natural protein)
chain: MANFFIDRPIFAWVLAILLCLTGTLAIFSLPVEQYPDLAPPNVRVTANYPGASAQTLENTVTQVIEQNMTGLDNLMYMSSQSSGTGQASVTLSFKAGTDPDEAVQQVQNQLQSAMRKLPQAVQNQGVTVRKTGDTNILTIAFVSTDGSMDKQDIADYVASNIQDPLSRVNGVGDIDAYGSQYSMRIWLDPAKLNSFQMTAKDVTDAIESQNAQIAVGQLGGTPSVDKQALNATINAQSLLQTPEQFRDITLRVNQDGSEVRLGDVATVEMGAEKYDYLSRFNGKPASGLGVKLASGANEMATAELVLNRLDELAQYFPHGLEYKVAYETTSFVKASIEDVVKTLLEAIALVFLVMYLFLQNFRATLIPTIAVPVVLMGTFSVLYAFGYSVNTLTMFAMVLAIGLLVDDAIVVVENVERIMSEEGLTPREATRKSMGQIQGALVGIAMVLSAVFVPMAFFGGTTGAIYRQFSITIVAAMVLSVLVAMILTPALCATLLKPLKKGEHHGQKGFFAWFNQMFNRNAERYEKGVAKILHRSLRWIVIYVLLLGGMVFLFLRLPTSFLPLEDRGMFTTSVQLPSGSTQQQTLKVVEQIEKYYFTHEKDNIMSVFATVGSGPGGNGQNVARMFIRLKDWSERDSKTGTSFAIIERATKAFNQIKEARVIASSPPAISGLGSSAGFDMELQDHAGAGHDALMAARNQLLALAAENPELTRVRHNGLDDSPQLQIDIDQRKAQALGVAIDDINDTLQTAWGSSYVNDFMDRGRVKKVYVQAAAPYRMLPDDINLWYVRNKDGGMVPFSAFATSRWETGSPRLERYNGYSAVEIVGEAAPGVSTGTAMDIMESLVKQLPNGFGLEWTAMSYQERLSGAQAPALYAISLLVVFLCLAALYESWSVPFSVMLVVPLGVIGALLATWMRGLENDVYFQVGLLTVIGLSAKNAILIVEFANEMNQKGHDLFEATLHACRQRLRPILMTSLAFIFGVLPMATSTGAGSGGQHAVGTGVMGGMISATILAIYFVPLFFVLVRRRFPLKPRPE
notes: AcrD, E. coli, full length; Seen as trimers, dimers and monomers in the same nanodisc sample; The nanodisc scaffold protein MSP1E3D1 (Sigma-Aldrich) is only a tool; also called AcrD aminoglycoside efflux pump; apo-AcrD
B1 was tested, and the “stoichiometry N” value was 3 and 2.
